According to patent publication US20190030120A1 (ACADEMIA SINICA, published 2019):

T1: Aurora A (UniProt O14965 1-403)
T1 construct: In the kinase assay it was present in 293T cell extracts, not purified; also called Aurora A kinase
T1 sequence (looked up): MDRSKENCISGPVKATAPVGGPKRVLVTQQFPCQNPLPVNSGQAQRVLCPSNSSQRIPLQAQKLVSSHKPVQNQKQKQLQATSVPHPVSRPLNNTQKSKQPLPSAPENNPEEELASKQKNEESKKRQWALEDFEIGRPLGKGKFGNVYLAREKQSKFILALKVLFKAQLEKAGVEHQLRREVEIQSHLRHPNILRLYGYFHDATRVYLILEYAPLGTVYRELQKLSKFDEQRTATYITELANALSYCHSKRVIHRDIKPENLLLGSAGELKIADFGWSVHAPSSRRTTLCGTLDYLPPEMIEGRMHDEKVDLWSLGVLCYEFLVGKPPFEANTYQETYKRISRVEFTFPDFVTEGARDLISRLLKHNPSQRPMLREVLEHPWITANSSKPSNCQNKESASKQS

T2: endogenous TIFA (U937 cells) (Homo sapiens, UniProt Q96CG3 1-184)
T2 construct: Endogenous protein of U937 cells
T2 sequence: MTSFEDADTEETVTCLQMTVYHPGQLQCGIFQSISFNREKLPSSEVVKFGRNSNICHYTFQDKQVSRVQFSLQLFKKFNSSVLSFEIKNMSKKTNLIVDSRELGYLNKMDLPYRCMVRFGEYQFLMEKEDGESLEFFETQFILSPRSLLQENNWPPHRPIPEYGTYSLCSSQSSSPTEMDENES

B1: HA-tagged TIFA (full-length TIFA wild-type) (other)
chain: MTSFEDADTEETVTCLQMTVYHPGQLQCGIFQSISFNREKLPSSEVVKFGRNSNICHYTFQDKQVSRVQFSLQLFKKFNSSVLSFEIKNMSKKTNLIVDSRELGYLNKMDLPYRCMVRFGEYQFLMEKEDGESLEFFETQFILSPRSLLQENNWPPHRPIPEYGTYSLCSSQSSSPTEMDENES
notes: Expressed in 293T cells from pCDNA3.1. 'full-length TIFA wild-type following a synthesized HA-tag' is read here as an N-terminal tag; also called HA-TIFA; not shown: synthesized HA-tag
B2: TIFA fragment F1F2 with two consecutive Myc-tags (peptide)
chain: MTSFEDADTEETVTCLQMTVYHPGQLQCGIFQSISFNREKLPSSEVVKFGRNSNICHYTFQDKQVSRVQFSLQLFKKFNSSVLSFEIKNMSKKTNLIVDSREL
notes: Stably expressed in U937 cells by retroviral transduction (pLNCX); also called F1-F2 peptide fragment; DN fragment; not shown: two consecutive Myc-tags (2Myc)
B3: TIFA fragment F2F3 with two consecutive Myc-tags (peptide)
chain: VVKFGRNSNICHYTFQDKQVSRVQFSLQLFKKFNSSVLSFEIKNMSKKTNLIVDSRELGYLNKMDLPYRCMVRFGEYQFLMEKEDGESLEFFETQFILSPRSLLQENNWPPHRPIPEYGTYSLCSSQSSSPTEMDENES
notes: Stably expressed in U937 cells by retroviral transduction (pLNCX); also called F2-F3 peptide fragment; DN fragment; not shown: two consecutive Myc-tags (2Myc)

Assays:
[1] = target: T1, Aurora A; assay: immunoprecipitation of Aurora A from lysates of 293T cells transfected with HA-tagged TIFA, western blot
Method: After 48 h, cells were treated with or without 10 ng/mL TNF-α (R&D Systems) for 30 min, washed by PBS, and lysed with CHAPS lysis buffer (20 mM PIPES, 1 mM Na₃VO₄, 1 mM EGTA, 50 mM Tris-HCl, 150 mM NaCl, 50 mM NaF, 1% CHAPS, and 10% glycerol) supplemented with protease inhibitor cocktail (Roche), phosphatase inhibitor cocktail 3 (Sigma). Three vig of indicated antibody was pre-coated with 100 μL M-280 Dynabeads (lnvitrogen) overnight at 4° C. The 500 μg cell extracts were incubated with 15 μL antibody-coated Dynabeads at 4° C. overnight. The protein-bead complex was then washed with Tris-buffered saline Tween 20 (TBST) buffer and subjected to Western blot analysis.

[2] = target: T2, endogenous TIFA (U937 cells); assay: anti-Myc immunoprecipitation from lysates of transduced U937 cells, western blot
From the text: AML lines were respectively infected with pseudotyped retroviruses carrying these constructs to generate stable cells. […] (FIG. 5C) Lysates from U937 cells stably expressing TIFA fragments shown in (FIG. 5B) were immunoprecipitated using anti-Myc immunobeads and analyzed by western blot.
We designed to fine-map the minimal effective region for molecular targeting of TIFA in AML cells through retroviral transduction (FIG. 5B).

Binder | binding result [1] | binding result [2]
B1 | binds | –
B2 | – | binds
B3 | – | binds
